# Reference: patent US20210269790A1
# Target: FKBP12-Gag^HIV fusion protein (FKBP12 domain added to the N-terminal of Gag of HIV) (human immunodeficiency virus (HIV))
# Assay: cell-based or functional assay
# Details: scale: times
substance,measurement,value
luciferase protein fused with an FRB domain (FRB-Luc) (from UniProt P42345 2021-2113),luciferase activity in HEK293T cells 16 hours after introduction of VLPs,12
